The record followed here is PMC5884693 (Cell, 2018).

This data set concerns the molecule itself. Nature of the data set: negative stain EM.

B1: Drosophila Arc homologue dArc1 (natural protein, UniProt Q7K1U0 1-254, looked up)
chain: MAQLTQMTNEQLRELIEAVRAAAVGAAGSAAAAGGADASRGKGNFSACTHSFGGTRDHDVVEEFIGNIETYKDVEGISDENALKGISLLFYGMASTWWQGVRKEATTWKEAIALIREHFSPTKPAYQIYMEFFQNKQDDHDPIDTFVIQKRALLAQLPSGRHDEETELDLLFGLLNIKYRKHISRHSVHTFKDLLEQGRIIEHNNQEDEEQLATAKNTRGSKRTTRCTYCSFRGHTFDNCRKRQKDRQEEQHEE
On to B1, for which the binding result was “binds”.
